Measurements published in US20070148191A1.

Target: CDw52 antigen (CAMPATH-1 antigen) (human) (UniProt P31358)
Assay: cell-based or functional assay

Work on CAMPATH (antibody) yielded a lysis in 51Cr release assay (ADCC) of SaOS-2 osteosarcoma cells with LAK effector cells, after 18 h of 45%.
